Tested on: MS2 coat protein
Experiment: apparent KD of MS2 coat protein; higher = weaker reporter binding
Conditions: Eterna round: R107
In short: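 Apparent KD stands for the median, per design, of fits to normalised cluster binding curves. The curves came from titrating on-chip-transcribed RNA switches on Illumina sequencing clusters with SNAP-549-labelled MS2 coat protein, twofold from 0.7 or 1.5 nM to 3 µM. Buffer was 100 mM Tris-HCl pH 7.5, 80 mM KCl, 4 mM MgCl2, without or with constant ligand.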

[1] = input ligand: theophylline 20 uM
[2] = input ligand: tryptophan 2.4 mM
[3] = input ligand: theophylline 2 mM

In the case of “ACUAGUUGUGCAGAUACCAGACAUGAGGAUCACCCAUGUUUGGGAUGUUCGCAUCUUCCUGUCCCUUGGCAGCUGUACAUCUAGA [Omei Theo B Exc v4]”, the “apparent KD of MS2 coat protein” value (input ligand: arginine 13.2 mM) is reported as 60.9 nM, the “apparent KD of MS2 coat protein” value [1] is reported as 145 nM and the “apparent KD of MS2 coat protein” value [2] is reported as 86.2 nM.

With “AACUGGAAAAGUGAUACCAGAGACAUGAGGAUCACCCAUGUACAUGAGGAUCACCCAUGUCUCCCUUGGCAGCACAAAAGGGAGA [Exclusion Theophylline B Gf11]” the “apparent KD of MS2 coat protein” value (input ligand: arginine 13.2 mM) was 16.1 nM, the “apparent KD of MS2 coat protein” value [1] was 37.6 nM and the “apparent KD of MS2 coat protein” value [2] was 24.5 nM.

In the case of “GCUACACAGGACCGUACUAAGGAUUCGCCUCGAGGACCGGUACGGCCGCCACUCGUUGCGCGACAUGAGGAUCACCCAUGUGUUC [theeternabot_exclusion_MS2_Trp_A_33]”, the “apparent KD of MS2 coat protein” value (input ligand: arginine 13.2 mM) is reported as 31.1 nM, the “apparent KD of MS2 coat protein” value [1] is reported as 48.3 nM and the “apparent KD of MS2 coat protein” value [3] is reported as 50.7 nM.

“GGGCGCGAGACGGCCGCCACUACACAUGAGGAUCACCCAUGUAUGGCAACAUGAGGAUCUGCCAUUAGGACCGGGUCAGGGCCCA” was tested, and the “apparent KD of MS2 coat protein” value (input ligand: arginine 13.2 mM) was 29.3 nM, the “apparent KD of MS2 coat protein” value (input ligand: none) was 31.2 nM and the “apparent KD of MS2 coat protein” value [1] was 53.4 nM. The “apparent KD of MS2 coat protein” value [3] was 41.8 nM and the “apparent KD of MS2 coat protein” value [2] was 38.5 nM.

“GGUGGCUGGACUGAUACCAGCCACCACCGAUAGACCACAUGAGGAUCACCCAUGUUGGGUGGCCCUUGGCAGCAGUCUAGCUGCC [#1 Same State - Theophylline B Attempt #11 (HarryS)]” was tested, and the “apparent KD of MS2 coat protein” value (input ligand: arginine 13.2 mM) was 231 nM, the “apparent KD of MS2 coat protein” value [1] was 727 nM and the “apparent KD of MS2 coat protein” value [2] was 441 nM.

For “AUAAGUAUGUUUUCGUGUUUUAUUACAGAUACCAGACUAUACGUUGUCCCUUGGCAGCUGGAUUACAUGAGGAUCACCCAUGUUG [#26 Exclusion-TheophyllineA]”, the “apparent KD of MS2 coat protein” value (input ligand: arginine 13.2 mM) was 19.9 nM, the “apparent KD of MS2 coat protein” value [1] was 32 nM and the “apparent KD of MS2 coat protein” value [2] was 23.1 nM.

For “UAACAUGAGGAUCACCCAUGUAUAGUCGAUACCAGCUCAAGGGAGAGCCCUUGGCAGCGACACUGGUAUCCAUGGGUGUGGAUAC [(Ms2)-(Theo)-(T)'-(M)'-(T)''_Design3]”, the “apparent KD of MS2 coat protein” value (input ligand: arginine 13.2 mM) was 76.9 nM, the “apparent KD of MS2 coat protein” value [1] was 86.2 nM and the “apparent KD of MS2 coat protein” value [2] was 69.8 nM.

For “AACAUGAGGAUCACCCAUGUCUGAACUGAAGGAGCGCUAAAUAAGGCAGGUAGGUCGCGGAAUUUUGUGUAUAUAUAUAUAUGGG [9.G]”, the “apparent KD of MS2 coat protein” value (input ligand: arginine 13.2 mM) was 17.6 nM, the “apparent KD of MS2 coat protein” value (input ligand: none) was 27.1 nM and the “apparent KD of MS2 coat protein” value [1] was 34.2 nM. For the same sequence, the “apparent KD of MS2 coat protein” value [3] was 25 nM and the “apparent KD of MS2 coat protein” value [2] was 24.3 nM.

For “CCGACGAUGACUAUGGGUCAGGAGUGCGUACGAGGACCGGUACGGCCGCCACUCGAGGAGUGGGACAUGAGGAUCACCCAUGUGG [#19 Exclusion Tryptophan A]”, the “apparent KD of MS2 coat protein” value (input ligand: arginine 13.2 mM) was 44.6 nM, the “apparent KD of MS2 coat protein” value (input ligand: none) was 50.2 nM and the “apparent KD of MS2 coat protein” value [1] was 49.8 nM. The “apparent KD of MS2 coat protein” value [3] was 54.8 nM and the “apparent KD of MS2 coat protein” value [2] was 47.8 nM.

In the case of “UAACGGCACUGAAGGAGCGAGUUGACAAACAUGAGGAUCACCCAUGUUAUGGGUUGUUAAUCUCAGGUAGGUCGCAGUUGUCGUA [Same State Arginine B GF 20]”, the “apparent KD of MS2 coat protein” value (input ligand: arginine 13.2 mM) is reported as 129 nM, the “apparent KD of MS2 coat protein” value (input ligand: none) is reported as 348 nM and the “apparent KD of MS2 coat protein” value [1] is reported as 387 nM. The “apparent KD of MS2 coat protein” value [3] was 511 nM and the “apparent KD of MS2 coat protein” value [2] was 365 nM.

“ACAUGAGGAUCACCCAUGUGGCGUCUUGAUACCAGACCCGAAGUAGUCCCUUGGCAGCAACUACGUGAGGGUCGCCCAUGUGUAG [k'kmullin]” was tested, and the “apparent KD of MS2 coat protein” value (input ligand: arginine 13.2 mM) was 23.5 nM, the “apparent KD of MS2 coat protein” value (input ligand: none) was 30.4 nM and the “apparent KD of MS2 coat protein” value [1] was 40.8 nM. For the same sequence, the “apparent KD of MS2 coat protein” value [3] was 40.9 nM and the “apparent KD of MS2 coat protein” value [2] was 25.5 nM.

“UGUCAGCGAAAGUUGACAUGUCUUACCGGUCGAGGACCGGUACGGCCGCCACUCGAUCACUCGCACAUGAGGAUCACCCAUGUUG [SS Tryp A #21]” was tested, and the “apparent KD of MS2 coat protein” value (input ligand: arginine 13.2 mM) was 21.1 nM, the “apparent KD of MS2 coat protein” value [1] was 24.6 nM and the “apparent KD of MS2 coat protein” value [3] was 23.8 nM.

For “AGUAUUGGAAACAGUACUAGUGAUCCGGUCCGAGGACCGGUACGGCCGCCACUCGAAUUAAAUAAACAUGAGGAUCACCCAUGUA [Ex Tryptophan A 15]”, the “apparent KD of MS2 coat protein” value (input ligand: arginine 13.2 mM) was 18.1 nM, the “apparent KD of MS2 coat protein” value [1] was 18.7 nM and the “apparent KD of MS2 coat protein” value [3] was 20.6 nM.

In the case of “CCUCGGGACCGAAGGAGCGAGAUAACAACAUUGGGUCUCAACACAUGAGGAUCACCCAUGUCUCAGGUAGGUCGCGGUACCAUGG [Exclusion Arginine B GF22]”, the “apparent KD of MS2 coat protein” value (input ligand: arginine 13.2 mM) is reported as 140 nM, the “apparent KD of MS2 coat protein” value (input ligand: none) is reported as 385 nM and the “apparent KD of MS2 coat protein” value [1] is reported as 275 nM. The “apparent KD of MS2 coat protein” value [3] was 387 nM and the “apparent KD of MS2 coat protein” value [2] was 182 nM.

For “GCUGGGUGCGCAAGGACCUGGCGUUGCGAUACCAGCACGGUAACGUGCCCUUGGCAGCGCACAUGAGGAUCACCCAUGUGGUGCG [#1 Exclusion - Theophylline A Attempt #21 (HarryS)]”, the “apparent KD of MS2 coat protein” value (input ligand: arginine 13.2 mM) was 18.7 nM, the “apparent KD of MS2 coat protein” value [1] was 45.8 nM and the “apparent KD of MS2 coat protein” value [2] was 22.5 nM.

“UGAUCCUGCAGGGAUACCAGCGCCGCUUGAUAACUGUGCACAUGAGGAUCACCCAUGUAGCGCCCUUGGCAGCCCAGCUAGAGGG [Same State Theophylline B GF23]” was tested, and the “apparent KD of MS2 coat protein” value (input ligand: arginine 13.2 mM) was 21.8 nM, the “apparent KD of MS2 coat protein” value [1] was 33.7 nM and the “apparent KD of MS2 coat protein” value [2] was 28.3 nM.

“AGCCCGUGAGCGGCCGCCACUGGAGGCUUUGCGCGACAUGAGGAUCACCCAUGUGUGCCCGGCGUUAGGACCGGGUUCGCGUGGU [#1 Same State - Tryptophan B Attempt #18 (HarryS)]” was tested, and the “apparent KD of MS2 coat protein” value (input ligand: arginine 13.2 mM) was 30 nM, the “apparent KD of MS2 coat protein” value (input ligand: none) was 38.5 nM and the “apparent KD of MS2 coat protein” value [1] was 48.7 nM. The “apparent KD of MS2 coat protein” value [3] was 45.4 nM and the “apparent KD of MS2 coat protein” value [2] was 32.4 nM.

Reference: the supplement of paper PMC9170038
